Here are results for ten molecules from US20260034194A1, “PHARMACEUTICAL COMPOSITIONS AND METHODS OF TREATING PSP” (priority 2022, published 2026).

Series [1] is classed as binding. As to conditions: for Kd: FP, 1 nM F-STX, 25° C., errors S.D.; for ΔΔG: ΔΔG = RT ln(Kd mutant or XSxph/Kd RcSxph), T = 298K, FP with F-STX.
The nature of series [2]: Thermofluor (TF) assay of STX binding. As to conditions: 1.1 μM Sxph, 0-20 μM STX; ΔTm at 20 μM toxin. In general terms: In DSF a fluorescence change marks the thermal transition of the protein.
The format of series [3] is binding. The settings on record: ITC, STX, 25° C. The procedure: . […] In almost all mutants, binding affinity loss correlated with a reduction in enthalpy, consistent with a loss of interactions (Table S2). […]. […] Together, these three assays (FIGS. 1E and G) provide a robust and versatile suite of options for characterizing STX:Sxph interactions.
ITC measurements were performed at 25° C. using a MicroCal PEAQ-ITC calorimeter (Malvern Panalytical). […]. This STX stock was diluted with the SEC buffer to prepare 100 μM or 300 μM STX solutions having a final buffer composition of 135 mM NaCl, 9 mM HEPES, pH 7.4. […]. The calorimetric experiment settings were: reference power, 5 μcal/s; spacing between injections, 150 s; stir speed 750 rpm; and feedback mode, high. Data were analyzed using MicroCal PEAQ-ITC Analysis Software (Malvern Panalytical) using a single binding site model. The heat of dilution from titrations of 100 μM STX in 135 mM NaCl, 9 mM HEPES, pH 7.4 into 135 mM NaCl, 9 mM HEPES, pH 7.4 was subtracted from each experiment to correct the baseline.

Residue numbers refer to the chain shown, from its start. In names and notes the source's numbering stands. Read-outs that look alike come from different tables or passages of the source.

B1: OsSxph: Oophaga sylvatica (Little devil poison frog) saxiphilin, SEQ ID NO: 5 (protein, listed as Oophaga sylvatica)
chain: MRMTLQVLLCLCLLVLSSAAPNSRNVRWCVTSDTEEQKCNDLVTSCHVDEILLICVKKSSKEDCVRAISNGEADAISLDSKDVYKASLDPFNLKPIMTEAYSESEQTPCMRHRQSVLGGKKMIIGAFVPKCDEKGNYVPKQCHDSTGFCWCLNENGEEIEGTRTPPGNSGLTCENKANKPPCLKERQKLLSAKPSPAVFVPECDEKGNYRPEQSHVYSWCVDEYGEEVLGSRTFPGKPPKPCEASGETPCIKERNKVLSAAEPLPGAFVPDCDEKGYFSPLQFHGSTGHSWCVTKNGEEIKGTRTRPGQTPPTCDVPAPATLHYAVAVVKKSSSFQLDQLKGKRSCHSAVGEAAGWVAPLNVLLKKKFLLWEEPEQKSTEKVASEIFSASCAAGAQEANLCEQCAGQEDKCTRGPGEPYYGDEGAIRCLRDDKGDVAFVEDTALTGQYSDNFELLCPDNTRRPLSQYKICNFGSVPRHAVVTRSTGDKMKEITEYLLQAQKKECKLFSSTHGKDLLFEDTTSALIALPSGMDTFLFLGPDLFNGMKTLNGAHPPRVKQKIRWCPQNKNEKKKCDDWSSVSGGSIKCTEPSSALECIKMILKDEADAVNLDAEHAYTALKCGLLPSLEEYRNKDDLIVCQIPGAEYSEFGSYRIVALVKKTDKDITWNNLQGKKSCHTHVGDMIGWNIPVYLISKKTKNCDLGSYFSQSCAPGSPIDSNLCKLCIGDPQNTEANTKCSLSDKEAYYGNEGAVRCLVETGDVAFVPHTAVFENTDGKNPALWAKDLKSTDFELLCPDGSRAPVSDYKKCKLSGIANHVTVTRPESVKDVVRITQNQESLYGRTGSQKDIFQMFSSSYGQNLLFNDRTQCLFEFDRMLDRDIMDDYLGKPFHKHLMSDNDCLPKSALATACSFHH
Regarding B1, in series [1], the affinity, expressed as Kd, was 0.8 ± 0.5 nM and the “ΔΔG” value is -1.32 kcal/mol.

B2: D785N: RcSxph STX binding pocket mutant D785N (protein)
chain: MAPTFQTALFFTIISLSFAAPNAKQVRWCAISDLEQKKCNDLVGSCNVPDITLVCVLRSSTEDCMTAIKDGQADAMFLDSGEVYEASKDPYNLKPIIAEPYSSNRDLQKCLKERQQALAKKMIGHYIPQCDEKGNYQPQQCHGSTGHCWCVNAMGEKISGTNTPPGQTRATCERHELPKCLKERQVALGGDEKVLGRFVPQCDEKGNYEPQQFHGSTGYSWCVNAIGEEIAGTKTPPGKIPATCQKHDLVTTCHYAVAMVKKSSAFQFNQLKGKRSCHSGVSKTDGWKALVTVLVEKKLLSWDGPAKESIQRAMSKFFSVSCIPGATQTNLCKQCKGEEGKNCKNSHDEPYYGNYGAFRCLKEDMGDVAFLRSTALSDEHSEVYELLCPDNTRKPLNKYKECNLGTVPAGTVVTRKISDKTEDINNFLMEAQKRQCKLFSSAHGKDLMFDDSTLQLALLSSEVDAFLYLGVKLFHAMKALTGDAHLPSKNKVRWCTINKLEKMKCDDWSAVSGGAIACTEASCPKGCVKQILKGEADAVKLEVQYMYEALMCGLLPAVEEYHNKDDFGPCKTPGSPYTDFGTLRAVALVKKSNKDINWNNIKGKKSCHTGVGDIAGWVIPVSLIRRQNDNSDIDSFFGESCAPGSDTKSNLCKLCIGDPKNSAANTKCSLSDKEAYYGNQGAFRCLVEKGDVAFVPHTVVFENTDGKNPAVWAKNLKSEDFELLCLDGSRAPVSNYKSCKLSGIPPPAIVTREESISDVVRIVANQQSLYGRKGFEKDMFQLFSSNKGNNLLFNDNTQCLITFNRQPKDIMEDYFGKPYYTTVYGASRSAMSSELISACTIKHC
Turning to B2, in series [1], binding was characterised by a dissociation constant (Kd) of 4.4 ± 0.6 nM and the “ΔΔG” value is -0.30 kcal/mol. In addition, the “ΔTm (STX-induced change of melting temperature)” value in series [2] is listed as “DTm increases relative to wild-type”.

B3: Q787A: RcSxph STX binding pocket mutant Q787A (protein)
chain: B2 chain with N804D, Q806A
With B3, in series [1], binding was characterised by a dissociation constant (Kd) of 11.3 ± 1.1 nM and the “ΔΔG” value amounted to 0.25 kcal/mol.

B4: T563A: RcSxph STX binding pocket mutant T563A (protein)
chain: B2 chain with T582A, N804D
For the molecule B4, in series [1], binding was put at a Kd of 5.3 ± 0.5 nM and the “ΔΔG” value is -0.20 kcal/mol.

B5: F561A: RcSxph STX binding pocket mutant F561A (protein)
chain: B2 chain with F580A, N804D
For the molecule B5, in series [1], the Kd is 16.8 ± 6 nM and the “ΔΔG” value came to 0.48 kcal/mol. Further, in series [3], the Kd turned out to be 13.4 ± 1.4 nM, the “ΔG” value is -10.8 ± 0.1 kcal/mol, the “ΔH” value is -12.7 ± 0.2 kcal/mol and the “ΔS (cal mol^−1 K^−1)” value is −6.6 ± 0.9 cal mol^−1 K^−1.

B6: E540D: RcSxph STX binding pocket mutant E540D (protein)
chain: B2 chain with E559D, N804D
On to B6, for which, in series [1], binding was put at a Kd of 99.9 ± 25.1 nM and the “ΔΔG” value is 1.54 kcal/mol. Also, in series [3], the Kd turned out to be 68.9 ± 10.7 nM, the “ΔG” value is -9.8 ± 0.1 kcal/mol, the “ΔH” value was -16.3 ± 1.7 kcal/mol and the “ΔS (cal mol^−1 K^−1)” value is −21.9 ± 5.7 cal mol^−1 K^−1.

B7: Y558A: RcSxph STX binding pocket mutant Y558A (protein)
chain: B2 chain with Y577A, N804D
Regarding B7, in series [1], the Kd was 1.4 ± 0.3 nM and the “ΔΔG” value is -1.00 kcal/mol. Further, in series [3], the dissociation constant (Kd) is 1.2 ± 0.4 nM, the “ΔG” value is -12.2 ± 0.2 kcal/mol, the “ΔH” value is -15.3 ± 0.0 kcal/mol and the “ΔS (cal mol^−1 K^−1)” value was −11.1 ± 1.1 cal mol^−1 K^−1.

B8: D794A: RcSxph STX binding pocket mutant D794A (protein)
chain: B2 chain with N804D, D813A
As for B8, in series [1], binding was characterised by a dissociation constant (Kd) of 13200 ± 6870 nM and the “ΔΔG” value turned out to be 4.43 kcal/mol. For the same molecule, the “ΔTm (STX-induced change of melting temperature)” value in series [2] is listed as “complete loss of the thermal shift”.

B9: Y795A: RcSxph STX binding pocket mutant Y795A (protein)
chain: B2 chain with N804D, Y814A
With B9, in series [1], the affinity, expressed as Kd, was 8.4 ± 2.1 nM and the “ΔΔG” value turned out to be 0.08 kcal/mol.

B10: D794E: RcSxph STX binding pocket mutant D794E (protein)
chain: B2 chain with N804D, D813E
Consider B10, for which, in series [1], the equilibrium dissociation constant (Kd) amounted to 1070 ± 69.3 nM and the “ΔΔG” value is 2.94 kcal/mol. In addition, in series [3], the Kd was determined as 312.5 ± 2.9 nM, the “ΔG” value is -8.9 ± 0.1 kcal/mol, the “ΔH” value was -11.8 ± 0.0 kcal/mol and the “ΔS (cal mol^−1 K^−1)” value is listed as −8.9 ± 0.1 cal mol^−1 K^−1.

As usually defined, the Kd is the constant that tells how readily two partners part at equilibrium. High values mean a looser complex, low ones a tighter complex.
